Experimental data published in publication PMC8298264, “Function of cofactor Akirin2 in the regulation of gene expression in model human neutrophil-like HL60 cells” (Bioscience Reports, 2021).

B1: sp¦P35908¦K22E_HUMAN (protein, UniProt P35908 1-639, looked up)
Keratin, type II cytoskeletal …: MSCQISCKSRGRGGGGGGFRGFSSGSAVVSGGSRRSTSSFSCLSRHGGGGGGFGGGGFGSRSLVGLGGTKSISISVAGGGGGFGAAGGFGGRGGGFGGGSSFGGGSGFSGGGFGGGGFGGGRFGGFGGPGGVGGLGGPGGFGPGGYPGGIHEVSVNQSLLQPLNVKVDPEIQNVKAQEREQIKTLNNKFASFIDKVRFLEQQNQVLQTKWELLQQMNVGTRPINLEPIFQGYIDSLKRYLDGLTAERTSQNSELNNMQDLVEDYKKKYEDEINKRTAAENDFVTLKKDVDNAYMIKVELQSKVDLLNQEIEFLKVLYDAEISQIHQSVTDTNVILSMDNSRNLDLDSIIAEVKAQYEEIAQRSKEEAEALYHSKYEELQVTVGRHGDSLKEIKIEISELNRVIQRLQGEIAHVKKQCKNVQDAIADAEQRGEHALKDARNKLNDLEEALQQAKEDLARLLRDYQELMNVKLALDVEIATYRKLLEGEECRMSGDLSSNVTVSVTSSTISSNVASKAAFGGSGGRGSSSGGGYSSGSSSYGSGGRQSGSRGGSGGGGSISGGGYGSGGGSGGRYGSGGGSKGGSISGGGYGSGGGKHSSGGGSRGGSSSGGGYGSGGGGSSSVKGSSGEAFGSSVTFSFR
B2: sp¦P46977¦STT3A_HUMAN (protein, UniProt P46977 1-705, looked up)
Dolichyl-diphosphooligosacchar …: MTKFGFLRLSYEKQDTLLKLLILSMAAVLSFSTRLFAVLRFESVIHEFDPYFNYRTTRFLAEEGFYKFHNWFDDRAWYPLGRIIGGTIYPGLMITSAAIYHVLHFFHITIDIRNVCVFLAPLFSSFTTIVTYHLTKELKDAGAGLLAAAMIAVVPGYISRSVAGSYDNEGIAIFCMLLTYYMWIKAVKTGSICWAAKCALAYFYMVSSWGGYVFLINLIPLHVLVLMLTGRFSHRIYVAYCTVYCLGTILSMQISFVGFQPVLSSEHMAAFGVFGLCQIHAFVDYLRSKLNPQQFEVLFRSVISLVGFVLLTVGALLMLTGKISPWTGRFYSLLDPSYAKNNIPIIASVSEHQPTTWSSYYFDLQLLVFMFPVGLYYCFSNLSDARIFIIMYGVTSMYFSAVMVRLMLVLAPVMCILSGIGVSQVLSTYMKNLDISRPDKKSKKQQDSTYPIKNEVASGMILVMAFFLITYTFHSTWVTSEAYSSPSIVLSARGGDGSRIIFDDFREAYYWLRHNTPEDAKVMSWWDYGYQITAMANRTILVDNNTWNNTHISRVGQAMASTEEKAYEIMRELDVSYVLVIFGGLTGYSSDDINKFLWMVRIGGSTDTGKHIKENDYYTPTGEFRVDREGSPVLLNCLMYKMCYYRFGQVYTEAKRPPGFDRVRNAEIGNKDFELDVLEEAYTTEHWLVRIYKVKDLDNRGLSRT
B3: sp¦P23381¦SYWC_HUMAN (protein, UniProt P23381 2-471, looked up)
Tryptophan--tRNA ligase, …: PNSEPASLLELFNSIATQGELVRSLKAGNASKDEIDSAVKMLVSLKMSYKAAAGEDYKADCPPGNPAPTSNHGPDATEAEEDFVDPWTVQTSSAKGIDYDKLIVRFGSSKIDKELINRIERATGQRPHHFLRRGIFFSHRDMNQVLDAYENKKPFYLYTGRGPSSEAMHVGHLIPFIFTKWLQDVFNVPLVIQMTDDEKYLWKDLTLDQAYSYAVENAKDIIACGFDINKTFIFSDLDYMGMSSGFYKNVVKIQKHVTFNQVKGIFGFTDSDCIGKISFPAIQAAPSFSNSFPQIFRDRTDIQCLIPCAIDQDPYFRMTRDVAPRIGYPKPALLHSTFFPALQGAQTKMSASDPNSSIFLTDTAKQIKTKVNKHAFSGGRDTIEEHRQFGGNCDVDVSFMYLTFFLEDDDKLEQIRKDYTSGAMLTGELKKALIEVLQPLIAEHQARRKEVTDEIVKEFMTPRKLSFDFQ
B4: sp¦Q15907¦RB11B_HUMAN (protein, UniProt Q15907 2-215, looked up)
Ras-related protein Rab-11B: GTRDDEYDYLFKVVLIGDSGVGKSNLLSRFTRNEFNLESKSTIGVEFATRSIQVDGKTIKAQIWDTAGQERYRAITSAYYRGAVGALLVYDIAKHLTYENVERWLKELRDHADSNIVIMLVGNKSDLRHLRAVPTDEARAFAEKNNLSFIETSALDSTNVEEAFKNILTEIYRIVSQKQIADRAAHDESPGNNVVDISVPPTTDGQKPNKLQCC
B5: sp¦P20645¦MPRD_HUMAN (protein, UniProt P20645 27-277, looked up)
Cation-dependent …: TEEKTCDLVGEKGKESEKELALVKRLKPLFNKSFESTVGQGSDTYIYIFRVCREAGNHTSGAGLVQINKSNGKETVVGRLNETHIFNGSNWIMLIYKGGDEYDNHCGKEQRRAVVMISCNRHTLADNFNPVSEERGKVQDCFYLFEMDSSLACSPEISHLSVGSILLVTFASLVAVYVVGGFLYQRLVVGAKGMEQFPHLAFWQDLGNLVADGCDFVCRSKPRNVPAAYRGVGDDQLGEESEERDDHLLPM
B6: sp¦Q9NRP0¦OSTC_HUMAN (protein, UniProt Q9NRP0 1-149, looked up)
Oligosaccharyltransferase …: METLYRVPFLVLECPNLKLKKPPWLHMPSAMTVYALVVVSYFLITGGIIYDVIVEPPSVGSMTDEHGHQRPVAFLAYRVNGQYIMEGLASSFLFTMGGLGFIILDRSNAPNIPKLNRFLLLFIGFVCVLLSFFMARVFMRMKLPGYLMG
B7: sp¦P30048¦PRDX3_HUMAN (protein, UniProt P30048 62-256, looked up)
Thioredoxin-dependent …: APAVTQHAPYFKGTAVVNGEFKDLSLDDFKGKYLVLFFYPLDFTFVCPTEIVAFSDKANEFHDVNCEVVAVSVDSHFSHLAWINTPRKNGGLGHMNIALLSDLTKQISRDYGVLLEGSGLALRGLFIIDPNGVIKHLSVNDLPVGRSVEETLRLVKAFQYVETHGEVCPANWTPDSPTIKPSPAASKEYFQKVNQ
B8: sp¦Q8TCJ2¦STT3B_HUMAN (protein, UniProt Q8TCJ2 2-826, looked up)
Dolichyl-diphosphooligosacchar …: AEPSAPESKHKSSLNSSPWSGLMALGNSRHGHHGPGAQCAHKAAGGAAPPKPAPAGLSGGLSQPAGWQSLLSFTILFLAWLAGFSSRLFAVIRFESIIHEFDPWFNYRSTHHLASHGFYEFLNWFDERAWYPLGRIVGGTVYPGLMITAGLIHWILNTLNITVHIRDVCVFLAPTFSGLTSISTFLLTRELWNQGAGLLAACFIAIVPGYISRSVAGSFDNEGIAIFALQFTYYLWVKSVKTGSVFWTMCCCLSYFYMVSAWGGYVFIINLIPLHVFVLLLMQRYSKRVYIAYSTFYIVGLILSMQIPFVGFQPIRTSEHMAAAGVFALLQAYAFLQYLRDRLTKQEFQTLFFLGVSLAAGAVFLSVIYLTYTGYIAPWSGRFYSLWDTGYAKIHIPIIASVSEHQPTTWVSFFFDLHILVCTFPAGLWFCIKNINDERVFVALYAISAVYFAGVMVRLMLTLTPVVCMLSAIAFSNVFEHYLGDDMKRENPPVEDSSDEDDKRNQGNLYDKAGKVRKHATEQEKTEEGLGPNIKSIVTMLMLMLLMMFAVHCTWVTSNAYSSPSVVLASYNHDGTRNILDDFREAYFWLRQNTDEHARVMSWWDYGYQIAGMANRTTLVDNNTWNNSHIALVGKAMSSNETAAYKIMRTLDVDYVLVIFGGVIGYSGDDINKFLWMVRIAEGEHPKDIRESDYFTPQGEFRVDKAGSPTLLNCLMYKMSYYRFGEMQLDFRTPPGFDRTRNAEIGNKDIKFKHLEEAFTSEHWLVRIYKVKAPDNRETLDHKPRVTNIFPKQKYLSKKTTKRKRGYIKNKLVFKKGKKISKKTV
B9: sp¦Q15397¦PUM3_HUMAN (protein, UniProt Q15397 1-648, looked up)
Pumilio homolog 3: MEVKGKKQFTGKSTKTAQEKNRFHKNSDSGSSKTFPTRKVAKEGGPKVTSRNFEKSITKLGKKGVKQFKNKQQGDKSPKNKFQPANKFNKKRKFQPDGRSDESAAKKPKWDDFKKKKKELKQSRQLSDKTNYDIVVRAKQMWEILRRKDCDKEKRVKLMSDLQKLIQGKIKTIAFAHDSTRVIQCYIQYGNEEQRKQAFEELRDDLVELSKAKYSRNIVKKFLMYGSKPQIAEIIRSFKGHVRKMLRHAEASAIVEYAYNDKAILEQRNMLTEELYGNTFQLYKSADHRTLDKVLEVQPEKLELIMDEMKQILTPMAQKEAVIKHSLVHKVFLDFFTYAPPKLRSEMIEAIREAVVYLAHTHDGARVAMHCLWHGTPKDRKVIVKTMKTYVEKVANGQYSHLVLLAAFDCIDDTKLVKQIIISEIISSLPSIVNDKYGRKVLLYLLSPRDPAHTVREIIEVLQKGDGNAHSKKDTEVRRRELLESISPALLSYLQEHAQEVVLDKSACVLVSDILGSATGDVQPTMNAIASLAATGLHPGGKDGELHIAEHPAGHLVLKWLIEQDKKMKENGREGCFAKTLVEHVGMKNLKSWASVNRGAIILSSLLQSCDLEVANKVKAALKSLIPTLEKTKSTSKGIEILLEKLST
B10: sp¦P57740¦NU107_HUMAN (protein, UniProt P57740 1-925, looked up)
Nuclear pore complex protein …: MDRSGFGEISSPVIREAEVTRTARKQSAQKRVLLQASQDENFGNTTPRNQVIPRTPSSFRQPFTPTSRSLLRQPDISCILGTGGKSPRLTQSSGFFGNLSMVTNLDDSNWAAAFSSQRSGLFTNTEPHSITEDVTISAVMLREDDPGEAASMSMFSDFLQSFLKHSSSTVFDLVEEYENICGSQVNILSKIVSRATPGLQKFSKTASMLWLLQQEMVTWRLLASLYRDRIQSALEEESVFAVTAVNASEKTVVEALFQRDSLVRQSQLVVDWLESIAKDEIGEFSDNIEFYAKSVYWENTLHTLKQRQLTSYVGSVRPLVTELDPDAPIRQKMPLDDLDREDEVRLLKYLFTLIRAGMTEEAQRLCKRCGQAWRAATLEGWKLYHDPNVNGGTELEPVEGNPYRRIWKISCWRMAEDELFNRYERAIYAALSGNLKQLLPVCDTWEDTVWAYFRVMVDSLVEQEIQTSVATLDETEELPREYLGANWTLEKVFEELQATDKKRVLEENQEHYHIVQKFLILGDIDGLMDEFSKWLSKSRNNLPGHLLRFMTHLILFFRTLGLQTKEEVSIEVLKTYIQLLIREKHTNLIAFYTCHLPQDLAVAQYALFLESVTEFEQRHHCLELAKEADLDVATITKTVVENIRKKDNGEFSHHDLAPALDTGTTEEDRLKIDVIDWLVFDPAQRAEALKQGNAIMRKFLASKKHEAAKEVFVKIPQDSIAEIYNQCEEQGMESPLPAEDDNAIREHLCIRAYLEAHETFNEWFKHMNSVPQKPALIPQPTFTEKVAHEHKEKKYEMDFGIWKGHLDALTADVKEKMYNVLLFVDGGWMVDVREDAKEDHERTHQMVLLRKLCLPMLCFLLHTILHSTGQYQECLQLADMVSSERHKLYLVFSKEELRKLLQKLRESSLMLLDQGLDPLGYEIQL
B11: sp¦P61006¦RAB8A_HUMAN (protein, UniProt P61006 1-204, looked up)
Ras-related protein Rab-8A: MAKTYDYLFKLLLIGDSGVGKTCVLFRFSEDAFNSTFISTIGIDFKIRTIELDGKRIKLQIWDTAGQERFRTITTAYYRGAMGIMLVYDITNEKSFDNIRNWIRNIEEHASADVEKMILGNKCDVNDKRQVSKERGEKLALDYGIKFMETSAKANINVENAFFTLARDIKAKMDKKLEGNSPQGSNQGVKITPDQQKRSSFFRC

System: human HL60 cells
Experiment: SWATH-MS proteomics, differential protein representation, akirin2 KO vs WT HL60 cells
Assay type: cell-based
Details: akirin2 KO vs WT HL60 cells, sheet "Under-represented in KO"
Outline: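 Differential representation compares akirin2 KO with WT HL60 across three biological replicates, 5 µg digest each, acquired by data-independent SWATH on a 120-min gradient. Library built from combined IDA runs searched with Paragon; proteins accepted at 1% FDR, with total-area-sum normalization.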

Molecule	Fold Change (KO vs WT)	Log (Fold Change) (KO vs WT)	Fold Change	Log (Fold Change)
B1	0.6196	-0.2079	–	–
B2	–	–	0.6295	-0.201
B3	–	–	0.6341	-0.1979
B4	–	–	0.6332	-0.1984
B5	–	–	0.6378	-0.1953
B6	0.6247	-0.2043	–	–
B7	–	–	0.6339	-0.198
B8	0.6204	-0.2073	–	–
B9	0.6182	-0.2089	–	–
B10	–	–	0.6316	-0.1995
B11	0.62	-0.2076	–	–
